The values below come from publication PMC11843475, “Taming interleukin‐12: Engineering of bispecific antibody‐based IL‐12 mimetics with biased agonism capacities” (Protein Science : A Publication of the Protein Society, 2025).

In this assay the target is T1, recombinant human (rh) His-tagged IL-12Rβ1 ECD (human, UniProt P42701 24-545).
T1 construct: Interleukin-12 receptor subunit beta-1, human, extracellular domain; Loaded on anti-Penta His (HIS1K) biosensors through its His tag; also called (rh) IL-12Rβ1; IL-12 receptor subunit β1; source: bought: Acro Biosystems (ILB-H52H9)
Put plainly: BLI; epitope binning / competition: 5 μg/mL His-tagged (rh) IL-12Rβ1 ECD loaded on HIS1K biosensors in PBS; first association 200 nM for 300 s, then second association 200 nM for 300 s with a 100 nM spike of the first molecule; kinetics buffer (PBS + 0.1% Tween-20, 1% BSA); 25°C, 1000 rpm; competition with rh IL-12 analysed in the same combinatorial manner. To be noted: both partners purified. In general terms: Biolayer interferometry detects binding as a change in optical thickness at a sensor tip.

B1: recombinant human (rh) IL-12 (complex)
chain 1: RNLPVATPDPGMFPCLHHSQNLLRAVSNMLQKARQTLEFYPCTSEEIDHEDITKDKTSTVEACLPLELTKNESCLNSRETSFITNGSCLASRKTSFMMALCLSSIYEDLKMYQVEFKTMNAKLLMDPKRQIFLDQNMLAVIDELMQALNFNSETVPQKSSLEEPDFYKTKIKLCILLHAFRIRAVTIDRVMSYLNAS
chain 2: IWELKKDVYVVELDWYPDAPGEMVVLTCDTPEEDGITWTLDQSSEVLGSGKTLTIQVKEFGDAGQYTCHKGGEVLSHSLLLLHKKEDGIWSTDILKDQKEPKNKTFLRCEAKNYSGRFTCWWLTTISTDLTFSVKSSRGSSDPQGVTCGAATLSAERVRGDNKEYEYSVECQEDSACPAAEESLPIEVMVDAVHKLKYENYTSSFFIRDIIKPDPPKNLQLKPLKNSRQVEVSWEYPDTWSTPHSYFSLTFCVQVQGKSKREKKDRVFTDKTSATVICRKNASISVRAQDRYYSSSWSEWASVPCS
notes: Interleukin-12 p35 alpha-subunit (IL12A), human; Interleukin-12 p40 beta-subunit (IL12B), human; Heterodimeric cytokine of p35 and p40; also called wild-type IL-12; interleukin-12; source: bought: Acro Biosystems
For the molecule B1, the binding result is recorded as “binds”.
